In publication PMC8908544 (Structure (London, England : 1993), 2022):

B1: NB1B11 (VHH)
VHH: QVQLQESGGGSVQAGGSLRLSCAASGYTVSVGCMAWFRQAPGKEREGVAGIDASGITKYSDSVKGRFTISKDNAKNALDLQMNGLKPEDTAMYHCAAGLVRGSCTDVLDHPSYLGVWGQGTQVTVSS
B2: NB1C6 (VHH)
VHH: QVQLQESGGGSVQAGGRLRLSCAASGDTYSSYCMGWFRQAPGKEREGVAAIYIGGDNTYYADSAKGRFTISQDYDKNTAYLQMNSLKSEDTAMYYCAAELFCPWPDIGTMSPAEYKYWGQGTQVTVSS
B3: format II: bi-paratopic and multivalent nanobody NB1A7-(GGGGS)4-NB1B11-Fc (bispecific antibody)
chain: QVQLQESGGGSVQAGGSLRLSCAASGYTFSSYCLGWFRQAPGKEREGVAAIDSDGSTSYADSVKGRFTISRDNAKNTLYLQMNSLKPEDTAMYYCAAEGGPSLSYCTGGYGFLLSGLMYNSWGQGTQVTVSSGGGGSGGGGSGGGGSGGGGSQVQLQESGGGSVQAGGSLRLSCAASGYTVSVGCMAWFRQAPGKEREGVAGIDASGITKYSDSVKGRFTISKDNAKNALDLQMNGLKPEDTAMYHCAAGLVRGSCTDVLDHPSYLGVWGQGTQVTVSSGGGGS
B4: NB1A7 (VHH)
VHH: QVQLQESGGGSVQAGGSLRLSCAASGYTFSSYCLGWFRQAPGKEREGVAAIDSDGSTSYADSVKGRFTISRDNAKNTLYLQMNSLKPEDTAMYYCAAEGGPSLSYCTGGYGFLLSGLMYNSWGQGTQVTVSS

Tests used:
[1] = molecular target: T1, receptor binding domain (RBD) of SARS-CoV-2 spike protein (SARS-CoV-2, UniProt P0DTC2 333-523); assay: BLI
[2] = molecular target: T1, receptor binding domain (RBD) of …; assay: ELISA
SARS-CoV RBD (306-527) = SARS-CoV RBD (306-527) (SARS-CoV, UniProt P59594 306-527); assay: BLI

| Binder | Kd [1] [nM] | IC50 [2] [nM] | Kd (SARS-CoV RBD (306-527)) [nM] |
| --- | --- | --- | --- |
| B1 | 6.76 ± 0.027 | 709 | – |
| B2 | 5.07 ± 0.05 | – | – |
| B3 | < 0.001 | 37.5 | – |
| B4 | – | – | 471 |
